{
  "source": "paper PMC4956541",
  "substrate": "O=S(=O)(O)O",
  "assay": "cells, lysate or membranes",
  "format": "cell-based, Homo sapiens",
  "settings": "ND96(Cl-) bath, pH 7.4, extracellular sulfate, labelled compound",
  "data": [
    {"protein": "human SLC26A1 (Homo sapiens) (protein) MDESPEPLQQGRGPVPVRRQRPAPRGLREMLKARLWCSCSCSVLCVRALVQDLLPATRWLRQYRPREYLAGDVMSGLVIGIILVPQAIAYSLLAGLQPIYSLYTSFFANLIYFLMGTSRHVSVGIFSLLCLMVGQVVDRELQLAGFDPSQDGLQPGANSSTLNGSAAMLDCGRDCYAIRVATALTLMTGLYQVLMGVLRLGFVSAYLSQPLLDGFAMGASVTILTSQLKHLLGVRIPRHQGPGMVVLTWLSLLRGAGQANVCDVVTSTVCLAVLLAAKELSDRYRHRLRVPLPTELLVIVVATLVSHFGQLHKRFGSSVAGDIPTGFMPPQVPEPRLMQRVALDAVALALVAAAFSISLAEMFARSHGYSVRANQELLAVGCCNVLPAFLHCFATSAALAKSLVKTATGCRTQLSSVVSATVVLLVLLALAPLFHDLQRSVLACVIVVSLRGALRKVWDLPRLWRMSPADALVWAGTAATCMLVSTEAGLLAGVILSLLSLAGRTQRPRTALLARIGDTAFYEDATEFEGLVPEPGVRVFRFGGPLYYANKDFFLQSLYSLTGLDAGCMAARRKEGGSETGVGEGGPAQGEDLGPVSTRAALVPAAAGFHTVVIDCAPLLFLDAAGVSTLQDLRRDYGALGISLLLACCSPPVRDILSRGGFLGEGPGDTAEEEQLFLSVHDAVQTARARHRELEATDAHL", "values": [
      {"measurement": "K0.5", "result": "0.26 ± 0.04", "unit": "mM"}
    ]}
  ]
}
